From the nanobody polyreactivity screen of Harvey et al. (2022) come the findings set out here.

The series is described as follows: yeast display, Sf9 membrane polyspecificity reagent, FACS + sequencing; frameworks hold sequencing errors. The method in brief: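 After 36–48 hours of galactose induction, yeast (Saccharomyces cerevisiae BJ5465) displaying a synthetic nanobody library were stained at 4 °C for 1 hour with 10% biotinylated, detergent-solubilized Sf9 membrane reagent. Streptavidin microbeads enriched the stained cells before FACS sorting into low and high (top ~1%) gates on anti-HA and streptavidin fluorescence. Each clone's polyreactivity label reflects its gate of origin.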
“QVQLVESWGGLVQAGGSLRLSCAASGSIFSYYGMGRYRQARGKERELVAAITRSTGSTYYADSVKGRFTISRDNAKNTVYLQMNSLKPEDTAVYYCATDYVVLWEFDYWGQGTQVTVSS”: the “polyreactivity (PSR sort gate)” value was “low polyreactivity”. For “QVQLVESWGGLVQAGGSLRLSCAASGSTFAVNAMGCYRQAPGKERELVDAITVSGGSTDYAYSVKRPFTISRDNAKYSVYLQLNRLKPEDTGVYYCADVRMKYYIYGGYDYWGQGTQVNVSS”, the “polyreactivity (PSR sort gate)” value is given as “low polyreactivity”. Consider “QVQLVESWGGLVQAGGSLRLSCAASGTTFTVYAMGWYRQAPGKERELVAAISWSTGRTYYADSVKGRFTISRDHAKNTVYLQMNSLKPEDTAVYYCAARVSYYRTPAEYGYWGQGTQVTVSS”, for which the “polyreactivity (PSR sort gate)” value is on record as “high polyreactivity”.

On to “QVQLVESWGGLVQAGGSLRLSCAASGYIFDRYAMGWYRQAPGKERELVAAISGRGGSTYYADSVKGRFTISRDNAKNTVYLQMNSLKPEDTAVYYCARDVYVRNGQRARYDSWGQGTQVTVSS”, for which the “polyreactivity (PSR sort gate)” value is recorded as “high polyreactivity”. Take “QVQLVESWGGLVQAGGSLRLSCADSGRIFRGYGMGWYIQAPGKERELVAVISYSGTPTYYADSVKGRFTISRDNAKNTVYLQMNSLKAEDTAVYYCAARLYWIPPSPSRYDYWLQGTQVTVSS”: the “polyreactivity (PSR sort gate)” value is listed as “high polyreactivity”. In the case of “QVQLVESWGGLVQAGGSLRLSCDASGSTFDGNDMGWSRPAPGKQRELVAAITIGGGSTYYADSVKGRFTISRDNAKNTVYLQMNSLKPEDTADYYCATEWVTGSEDYDYWGQGTQVTVSS”, the “polyreactivity (PSR sort gate)” value is reported as “low polyreactivity”.

As to “QVQLVESWGGLVQAGGSLRLSCPASGYIIQTYAMGWYRQAPGKEREFLAAMTSGAGRTSYADSVKGRFTISRDNAKNTVYLQLHRLKPEDTAVYFCAARWRYQLSGSRLSYGKYDYWGQGTQVTVSS”, the “polyreactivity (PSR sort gate)” value is on record as “high polyreactivity”.

In the case of “QVQLVESWGGLVQAGGSLRLSCSAYGYTFTLTPMGWSRQAPGKERELVAAISRSGGSTYYADSVKGRFTISRDNAKNTVYLQMISLKPEDTAVYYCDADGYSGYDYWGQGTLVTVSS”, the “polyreactivity (PSR sort gate)” value was “low polyreactivity”. Next, “QVQLVESWGGLVQAGGSLSLSCAASGSIFAANAMGWYRQAPGKERELVAAISWSGGSTYADSVKRRFTISRDNEKNTVYLQRNSLKPEDTAVYYCAADLCSQYKFGYCGQGTQVTVSS”: “low polyreactivity”; “QVQLVESWGGLVQAGRSLRLSCAASGRTFYNYAMGWYRQAPGKERELVAAITRGGSTYYADSVKGRFTISRDNAKNTVYLHMNSLKPEDTAVYFCNAKYIKGRDWGQGTQVTVSS”: “high polyreactivity”; “QVQLVESWGGLVQEGGSLRVSCAASGSIFSHYAMGRYRQAPGKEREFVAAIPRGVSTYYADSVKGRFTISRDNAKNTVYLLMNSLKPEYTGVYSCNKTYVRGVHGVYLPITSYDYWGQGTQVTVSS”: “low polyreactivity”.

With “QVQLVESWGVLVQAGGSLRLSCAASGYTFLVYAMGWYRQAPGKERELVAGITRGSSTYADSVKGRFTISRDNAKNTVYLQMNSLKPEDTAVYYCAARFAKQDYDYWGQGTQVTVSS”, the “polyreactivity (PSR sort gate)” value was “high polyreactivity”. Next, “QVQLVETGGCLVQAGCSLRLSCAASGIIFYEYAMGRYRQAPGKERELVAAIDWSGGSTYYADSVKGRFTISRDNAKNTVYLQMNRLKPEDSAVYYCAAQWAWVDYFGNWYASTYDYWGQGTQVTVSS”: “high polyreactivity”; “QVQLVETGGGIVQAGGSLRLSCASSGRTFNKYAMGRYRKAPGKERELVAAINYSGGRTDYADSVKGRFTISRDNAKNTVYLQMNSLKPDDTAVYYCAASPTFFVWQGYNYWGQGTQVTVSS”: “low polyreactivity”. The value for “QVQLVETGGGIVQAGVSLRISCASSGRTFRWYAMGWSRQSPGKERELVAAITSGGGTYYADSVKGLFTISRDYAKNTVYLQMNRLKREDTAVYYCNKLHRDRYDYWGQGTQVTVSS” was “high polyreactivity”; that for “QVQLVETGGGLVHAGGSLRLSCAASGRTFEPNAMGWYRQAPGKERELVATISYSGGRTNYADSVKGRFTISRDNAKNTVYLQMKILKPEDTAVYYCATRTYYRRVCIRDFWGQGTLVTVSS” was “high polyreactivity”.

In the case of “QVQLVETGGGLVQAGGRLRLSCAASGRIFVYYDMGWSIQAPGKERELVAAITSGGDRTYYADSVKGRFTISRDNAKNTVYLQMNSLKPEDTAVYYCNTYYYPYGYWGQGTQVTVSS”, the “polyreactivity (PSR sort gate)” value is given as “high polyreactivity”. Next, “QVQLVETGGGLVQAGGSHRLSCAASVRTLYKNAMGWYRQEPGKERELVAAISVSGGRTYYADSVKGRFTISRDNAKNTVYFQMNSLKPEDTAVYYCATRLYPISKYGYWGQGTQVTVSS”: “high polyreactivity”; “QVQLVETGGGLVQAGGSLRLICAASASTFGYYAMGWYRQAPGKERELVAGIRYRGGSTSYADSVKGRFTISRDNAKNTVYLQLNSLKREDTAVYYCANGIYRGRTSSFRMGYWGQVTQVTVSS”: “low polyreactivity”. The value for “QVQLVETGGGLVQAGGSLRLSCAASGFIFIHNAMGWYRQAPGKERELVAAISYSGGSTYYADSVKGRFTISRDNEKNTVYLQMNSLKPEDTAVYYCAARGALHHWYRYDDWGQGTQVTVSS” was “low polyreactivity”; that for “QVQLVETGGGLVQAGGSLRLSCAASGFTFRPYVMGWYRQPPGKERELVAGITWDGDSTYYADSVKGRFTISRDNPKNTVYLQMNSLKPEDTAVYYCAAEDADWVSQYYYWGQGTQVTVSS” was “high polyreactivity”. As for “QVQLVETGGGLVQAGGSLRLSCAASGFTFWYNDMGWYRQPPGKEREFVAAINSGGSTNDADSVKGRFTISRDNAKNTVYLQMNSLKPEDTAVYYCNADWFTPAQPWYRYFIRYDYWGQGTQVTVSS”, the “polyreactivity (PSR sort gate)” value is “low polyreactivity”.

With “QVQLVETGGGLVQAGGSLRLSCAASGFTILGYDMGWYRQAHGKERELVAAFDYSGGSTYYADSVKGRFTISRDNAQNTVYLQMNSLKPEDTAVYYCAAYTGKGRAYFRWMDYWGQGTQVTVSS”, the “polyreactivity (PSR sort gate)” value was “high polyreactivity”.

Take “QVQLVETGGGLVQAGGSLRLSCAASGFTIQRYAMGWYRQAPGKEREFVAAITSGGSTYYADSVKGRFTISRDNAKNTVYLQMNSLKPEDTAVYYCATRAVWSSWGRRYDSWGQGTQVTVSS”: the “polyreactivity (PSR sort gate)” value was “high polyreactivity”. Regarding “QVQLVETGGGLVQAGGSLRLSCAASGFTSLTYAMGWYRQAPGKERELVAAITFSGGSTYYADSVKGRFTISRDNAKNTVYLQMNSLKPEDTAVYYCARDGLWYNAIWEYDYWGLGTQVTVSS”, the “polyreactivity (PSR sort gate)” value is recorded as “high polyreactivity”. Consider “QVQLVETGGGLVQAGGSLRLSCAASGIIFYGYAMGWYRQAPGKERELVAAITYSGGSTYYADSVKGRFTISRDNAKNTVYLQMNSLKPEDTAVYYCRYDIWVWWSGAYDYWGQGTQVTVSS”, for which the “polyreactivity (PSR sort gate)” value is on record as “low polyreactivity”. On to “QVQLVETGGGLVQAGGSLRLSCAASGIIIGYYAMGWYRQAPGKEREMVAAINQDGSSTYYADSVKGRFTISRDNAKNTVYLQMNSLTPEDTAVYYCNARGVPRQDARMGYWGQGTQVTVSS”, for which the “polyreactivity (PSR sort gate)” value is “low polyreactivity”. With “QVQLVETGGGLVQAGGSLRLSCAASGITFSDNAMGWYIQAPVKERELVADISYGGGNTYYADSVQGRFTISRDNAKYTVYLQMNSLKPEDTAVYYCAAVYYFLWYGYYLALDYWGQGTQVTVSS”, the “polyreactivity (PSR sort gate)” value is reported as “high polyreactivity”. As for “QVQLVETGGGLVQAGGSLRLSCAASGLIFRNNVMGWYRQAPGKERELVAAIRESGGRTYYADSVKGRFTISRDNAKNTVYLQMNSLKPEDTAVYYCAADSRVGFGRLYGYWGQGTQVTVSS”, the “polyreactivity (PSR sort gate)” value is given as “high polyreactivity”.

Take “QVQLVETGGGLVQAGGSLRLSCAASGNMFVTYDMGWYRKAPGKERELVASISWNGGSTNYADSVKGRFTISRDNAKNTVYLQMNSLKPEDTAVYYCAVDYARDKGYPYGYWGQGTQVTVSS”: the “polyreactivity (PSR sort gate)” value is “low polyreactivity”. Consider “QVQLVETGGGLVQAGGSLRLSCAASGRIFEIYAMGWYRQAPGKERELVAAIDESGGSTYYADSVKGRFTISRDNGKNTVYLQMNSLKPEDTAVYYCATDDTWTITYGWYWFTYEYWGQCTQVTVSS”, for which the “polyreactivity (PSR sort gate)” value is “low polyreactivity”. With “QVQLVETGGGLVQAGGSLRLSCAASGRIFKRNTMGWYRQAPGKEREFVASITFSGGSTNYADSVKGRFTISRDNAKNTVYLQMNSLKPEDTAVYYCAARDYHYSTYDYWGQGTQVTVSS”, the “polyreactivity (PSR sort gate)” value is given as “low polyreactivity”. In the case of “QVQLVETGGGLVQAGGSLRLSCAASGRIFRFYDMGWYRQAPGQERELVATINPTGGSTSYADSVKGRFTISRDNAKNTVYLQMNSLNPEDTAVYYCAADSWYSVRKTWSRSGSFPFDYWGQGTQVTVSS”, the “polyreactivity (PSR sort gate)” value is listed as “high polyreactivity”. Next, “QVQLVETGGGLVQAGGSLRLSCAASGRIFWLYAMGWYRQAPGKERELVASISSGGTTHYADSVKGRFTISRDNAKNTVYLQMNSLKPEDTAVYYCAVRPYYSWAYYYWGQGTQVTLSS”: “high polyreactivity”.

With “QVQLVETGGGLVQAGGSLRLSCAASGRTFARNAMGWYRQAPGKERELVAAISRRGGNTYYADSVKGRFTISRDNAKNTVYLQMNSLKPEDTAVYYCAVRWPSARIPVKLDYWGQGTQVTVSS”, the “polyreactivity (PSR sort gate)” value was “high polyreactivity”. Next, “QVQLVETGGGLVQAGGSLRLSCAASGRTFARYAMGWYRQAPGTERELVAAISWGGTRTYYADSVKGRFTISRDNAKNTVYLQMNSLKPEDTAVYYCAATYLYRDQPKWGGFAYTYGLWGQGTQVTVSS”: “high polyreactivity”; “QVQLVETGGGLVQAGGSLRLSCAASGRTFTRYAMGWYRQAPGKERELVAAISSSGASTYYADSVKGRFTISRDNAKNTVYLQMNSLKPEDTAVYYCAAKQTRPSGFGYWGQGTQVTVSS”: “high polyreactivity”; “QVQLVETGGGLVQAGGSLRLSCAASGRTIRKYAMGWYRQAPGKERELVAAISWSGGSTYYANSVKGRFTISRDNAKNTVYLQMKSLKPVDTEVYYCAAVPVHTGSLYWGFTTGYDYWGQGTQVTVSS”: “low polyreactivity”. With “QVQLVETGGGLVQAGGSLRLSCAASGRTYRFNAMGWYRQAPGKERELVASINSGVRTYYADSVKGRFTISRDNAKNTVYLQMNSLKPEDSAVYYCAARYRVRYYERDYWGQGTQVTVSS”, the “polyreactivity (PSR sort gate)” value is on record as “high polyreactivity”. On to “QVQLVETGGGLVQAGGSLRLSCAASGRTYVYNAMGWYRQAPGKERELVAAIDGGGDRTYYADSVKGRFTISRDNAKNTVYLQMNSLKPEDTAVYYCARDPGDTYYYSYQEGDYWGQGTQVTVSS”, for which the “polyreactivity (PSR sort gate)” value is reported as “low polyreactivity”.
